In article PMC11889887 (2025):
Bridge positions count the residues as written; N and C are the ends. Square brackets hold non-standard residues; d marks the D form. Ends that are not written are not given here. Lys(N3) = [N-]=[N+]=NCCCC[C@H](N)C(=O)O; Pra = C#CC[C@H](N)C(=O)O

Experiments:
[1] = biological target: T1, biotinylated recombinant human αvβ8 integrin (human, UniProt P06756 31-1048; P26012 43-684, biotin (chain and site not stated) | biotin (chain and site not stated)); test: ELISA; competition with latent TGFβ1
T1 chain 1: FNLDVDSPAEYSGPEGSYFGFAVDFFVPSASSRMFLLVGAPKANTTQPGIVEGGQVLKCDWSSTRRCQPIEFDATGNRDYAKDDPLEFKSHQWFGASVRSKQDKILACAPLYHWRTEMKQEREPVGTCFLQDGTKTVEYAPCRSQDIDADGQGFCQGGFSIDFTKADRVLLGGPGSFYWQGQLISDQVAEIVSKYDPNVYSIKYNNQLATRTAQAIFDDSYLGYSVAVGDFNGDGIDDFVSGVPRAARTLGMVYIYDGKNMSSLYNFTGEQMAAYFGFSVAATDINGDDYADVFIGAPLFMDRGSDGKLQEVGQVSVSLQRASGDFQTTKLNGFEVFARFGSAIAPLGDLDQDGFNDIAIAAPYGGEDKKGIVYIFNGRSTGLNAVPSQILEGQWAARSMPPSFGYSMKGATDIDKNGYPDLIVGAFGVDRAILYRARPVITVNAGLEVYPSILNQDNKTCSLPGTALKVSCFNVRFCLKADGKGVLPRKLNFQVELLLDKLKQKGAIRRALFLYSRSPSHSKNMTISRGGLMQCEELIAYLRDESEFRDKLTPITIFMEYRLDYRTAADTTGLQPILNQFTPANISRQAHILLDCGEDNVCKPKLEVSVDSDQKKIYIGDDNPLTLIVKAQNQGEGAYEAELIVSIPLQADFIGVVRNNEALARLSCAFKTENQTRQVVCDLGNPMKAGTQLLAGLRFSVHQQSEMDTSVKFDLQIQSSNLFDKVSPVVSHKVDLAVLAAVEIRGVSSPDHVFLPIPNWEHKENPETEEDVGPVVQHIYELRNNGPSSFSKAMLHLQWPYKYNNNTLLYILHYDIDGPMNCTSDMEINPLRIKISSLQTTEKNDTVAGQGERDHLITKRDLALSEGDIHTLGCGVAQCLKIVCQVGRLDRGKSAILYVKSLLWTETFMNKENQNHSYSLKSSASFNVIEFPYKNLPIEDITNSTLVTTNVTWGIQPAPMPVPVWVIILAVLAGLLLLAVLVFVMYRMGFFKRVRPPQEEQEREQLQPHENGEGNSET
T1 chain 2: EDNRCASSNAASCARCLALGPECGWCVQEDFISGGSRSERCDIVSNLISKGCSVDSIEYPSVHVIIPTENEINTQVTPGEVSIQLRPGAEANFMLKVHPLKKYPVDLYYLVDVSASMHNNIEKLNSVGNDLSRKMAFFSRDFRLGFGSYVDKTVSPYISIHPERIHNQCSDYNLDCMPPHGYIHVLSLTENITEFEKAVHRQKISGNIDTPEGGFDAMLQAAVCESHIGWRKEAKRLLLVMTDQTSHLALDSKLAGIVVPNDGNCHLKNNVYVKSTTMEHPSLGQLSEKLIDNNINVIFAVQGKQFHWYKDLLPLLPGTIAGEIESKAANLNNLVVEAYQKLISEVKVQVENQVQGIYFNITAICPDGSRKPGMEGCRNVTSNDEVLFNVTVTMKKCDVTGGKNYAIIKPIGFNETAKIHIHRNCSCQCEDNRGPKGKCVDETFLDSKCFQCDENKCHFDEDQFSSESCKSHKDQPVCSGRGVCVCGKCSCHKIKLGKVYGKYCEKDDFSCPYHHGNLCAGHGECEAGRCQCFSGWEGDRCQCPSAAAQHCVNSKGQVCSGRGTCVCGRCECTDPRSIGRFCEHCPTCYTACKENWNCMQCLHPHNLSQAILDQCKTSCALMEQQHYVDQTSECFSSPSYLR

[2] = biological target: T2, biotinylated recombinant human αvβ6 integrin (human, UniProt P06756 31-1048; P18564 22-709, biotin (chain and site not stated) | biotin (chain and site not stated)); test: ELISA; competition with latent TGFβ1
T2 chain 1: T1 chain 1
T2 chain 2: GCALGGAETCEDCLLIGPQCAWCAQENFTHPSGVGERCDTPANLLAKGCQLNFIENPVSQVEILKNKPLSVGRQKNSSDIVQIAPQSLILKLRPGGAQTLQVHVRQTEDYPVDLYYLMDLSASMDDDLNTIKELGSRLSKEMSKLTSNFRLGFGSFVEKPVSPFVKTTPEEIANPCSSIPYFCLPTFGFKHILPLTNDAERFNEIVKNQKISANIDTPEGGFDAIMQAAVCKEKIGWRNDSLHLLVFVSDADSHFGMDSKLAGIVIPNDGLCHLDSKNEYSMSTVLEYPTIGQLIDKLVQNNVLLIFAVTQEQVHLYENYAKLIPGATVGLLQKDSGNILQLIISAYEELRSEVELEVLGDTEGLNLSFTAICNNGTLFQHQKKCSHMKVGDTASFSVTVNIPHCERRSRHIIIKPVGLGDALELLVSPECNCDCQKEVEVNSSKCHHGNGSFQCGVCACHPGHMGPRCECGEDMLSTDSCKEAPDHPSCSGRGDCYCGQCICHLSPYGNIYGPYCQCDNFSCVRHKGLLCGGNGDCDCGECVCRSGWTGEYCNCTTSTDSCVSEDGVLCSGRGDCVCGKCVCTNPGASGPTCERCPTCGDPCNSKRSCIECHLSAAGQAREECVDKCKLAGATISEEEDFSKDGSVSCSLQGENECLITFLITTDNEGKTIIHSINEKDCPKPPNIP

## CFETLRGDLRILSILR[Pra]QNL[Lys(N3)]KELQD-NH2 (triazole 17-21) [peptide 5a (chromogranin A-derived peptide)]
[1]
  Ki: 2.74 nM
[2]
  Ki: 0.139 nM
